One assay deals with GST-RAD23 (UniProt P54727). The assay can be described thus: Octet (BLI). Particulars: GST-RAD23 on the sensor; GST control curve in the same panel reaches est. 0.21 nm (above the T1 curve); read off a plot. Background: In BLI a coated tip is dipped into the sample, and binding shifts an interference pattern.
For another assay, the target named is GST-NUB1L, Q9Y5A7-1. The assay can be described thus: Octet (BLI). Particulars: GST-NUB1L on the sensor; His6-RPN1 variant in solution; parent: est. 0.58; read off a plot.
A further assay deals with His6-RPN1 WT (human) (UniProt Q13200). Briefly: BLI; Octet; His6-RPN1 loaded on the nickel sensor; NUB1L, GST-FAT10, NUB1L with GST-FAT10 or NUB1L with GST in solution; Octet buffer (PBS, 0.1% Triton X-100, 1x ROTIBlock); 1:1 binding model.

Chain of His6-RPN1 WT (Q13200 whole entry, change not shown): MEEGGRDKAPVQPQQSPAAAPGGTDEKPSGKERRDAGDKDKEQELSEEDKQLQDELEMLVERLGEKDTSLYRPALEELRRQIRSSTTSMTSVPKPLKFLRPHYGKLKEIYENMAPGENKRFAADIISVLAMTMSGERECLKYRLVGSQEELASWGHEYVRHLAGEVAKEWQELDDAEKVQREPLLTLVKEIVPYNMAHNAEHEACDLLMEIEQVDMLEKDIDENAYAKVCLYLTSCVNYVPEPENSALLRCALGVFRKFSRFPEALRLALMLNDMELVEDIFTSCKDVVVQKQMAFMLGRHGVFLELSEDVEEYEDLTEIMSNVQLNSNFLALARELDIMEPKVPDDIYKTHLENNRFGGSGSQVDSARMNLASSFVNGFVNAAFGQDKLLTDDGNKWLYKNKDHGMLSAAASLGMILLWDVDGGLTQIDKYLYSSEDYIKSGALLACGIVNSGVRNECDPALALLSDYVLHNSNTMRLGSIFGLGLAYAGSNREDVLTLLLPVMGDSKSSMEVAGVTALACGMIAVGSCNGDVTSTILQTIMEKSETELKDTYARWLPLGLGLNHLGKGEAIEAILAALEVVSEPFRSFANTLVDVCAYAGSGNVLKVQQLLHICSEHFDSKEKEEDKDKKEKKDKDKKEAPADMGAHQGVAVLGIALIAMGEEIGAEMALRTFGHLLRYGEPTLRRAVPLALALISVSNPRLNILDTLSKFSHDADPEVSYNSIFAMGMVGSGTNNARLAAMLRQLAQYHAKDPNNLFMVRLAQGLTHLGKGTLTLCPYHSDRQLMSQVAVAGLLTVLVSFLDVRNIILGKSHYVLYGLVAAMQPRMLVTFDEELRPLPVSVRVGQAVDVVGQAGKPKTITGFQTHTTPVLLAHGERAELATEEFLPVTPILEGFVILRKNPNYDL
Chain of GST-RAD23 (P54727 whole entry): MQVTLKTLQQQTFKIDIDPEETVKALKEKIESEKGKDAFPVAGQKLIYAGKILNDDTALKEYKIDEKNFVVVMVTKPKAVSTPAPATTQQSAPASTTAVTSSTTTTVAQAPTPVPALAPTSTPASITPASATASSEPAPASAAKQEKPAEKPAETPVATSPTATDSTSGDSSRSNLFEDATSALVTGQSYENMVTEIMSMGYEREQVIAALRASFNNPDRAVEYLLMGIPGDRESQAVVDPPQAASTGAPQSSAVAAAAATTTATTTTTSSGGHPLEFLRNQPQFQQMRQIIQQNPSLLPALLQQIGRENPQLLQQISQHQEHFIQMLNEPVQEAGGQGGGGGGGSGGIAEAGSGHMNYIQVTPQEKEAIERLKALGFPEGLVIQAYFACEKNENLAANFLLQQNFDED
Chain of NUB1L-bound GST-FAT10 (NUB1L co-incubated with GST-FAT10) (Q9Y5A7 whole entry): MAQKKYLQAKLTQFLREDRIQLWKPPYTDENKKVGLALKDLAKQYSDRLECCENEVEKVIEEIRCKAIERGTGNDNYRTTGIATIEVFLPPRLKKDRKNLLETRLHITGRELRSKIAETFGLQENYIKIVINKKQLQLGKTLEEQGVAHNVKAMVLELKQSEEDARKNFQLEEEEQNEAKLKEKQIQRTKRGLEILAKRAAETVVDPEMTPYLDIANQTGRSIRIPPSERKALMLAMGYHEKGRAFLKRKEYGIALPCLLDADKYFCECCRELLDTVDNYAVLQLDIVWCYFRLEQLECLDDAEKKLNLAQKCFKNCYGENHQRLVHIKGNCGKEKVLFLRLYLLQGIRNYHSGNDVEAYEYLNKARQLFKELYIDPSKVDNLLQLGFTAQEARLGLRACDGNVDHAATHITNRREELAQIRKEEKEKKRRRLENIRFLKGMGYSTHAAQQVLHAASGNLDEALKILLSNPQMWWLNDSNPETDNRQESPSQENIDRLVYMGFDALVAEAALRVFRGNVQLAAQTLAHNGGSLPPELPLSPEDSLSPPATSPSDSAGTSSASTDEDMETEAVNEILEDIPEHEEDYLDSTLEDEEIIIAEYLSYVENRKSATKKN
Chain of NUB1L-bound GST-FAT10 (NUB1L co-incubated with GST-FAT10) (O15205 whole entry): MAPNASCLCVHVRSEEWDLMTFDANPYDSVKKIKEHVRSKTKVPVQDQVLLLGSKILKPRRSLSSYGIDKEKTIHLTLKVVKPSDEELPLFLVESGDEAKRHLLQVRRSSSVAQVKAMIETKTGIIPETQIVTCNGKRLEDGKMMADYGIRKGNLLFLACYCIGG
Chain of GST-NUB1L, Q9Y5A7-1 (Q9Y5A7 whole entry): as the sequence (Q9Y5A7 whole entry) above

With His6-RPN1 WT (from UniProt Q13200) T1, the response came out at 0.19 nm with GST-RAD23 and 0.37 nm in the assay with GST-NUB1L, Q9Y5A7-1.

Turning to “NUB1L-bound GST-FAT10 (NUB1L co-incubated with GST-FAT10) (from UniProt Q9Y5A7-1 1-615; O15205 1-165) (complex)”, in the assay with His6-RPN1 WT (human), the fold increase of the affinity for RPN1 against NUB1L alone is 4 fold.

The record behind these values is PMC10185811.
